Where two headings read alike, the source gives them in different places.
Tests used:
Test in all cases: EMSA
[1] = target: T1, SmD1 (1-109);SmD2;SmF;SmE;SmG (Saccharomyces cerevisiae;Saccharomyces …, UniProt Q02260;Q06217;P54999;Q12330;P40204 1-109;1-110;1-86;1-94;1-77, ||||)
[2] = target: T2, SmD1 (1-109);SmD2;SmF;SmE;SmG;Brr1 (Saccharomyces cerevisiae;Saccharomyces …, UniProt Q02260;Q06217;P54999;Q12330;P40204;Q99177 1-109;1-110;1-86;1-94;1-77;1-341, |||||)
[3] = target: T3, SmD1 (1-109);SmD2;SmF;SmE;SmG;SmD3 (1-88);SmB (1-105) (Saccharomyces cerevisiae;Saccharomyces …, UniProt Q02260;Q06217;P54999;Q12330;P40204;P43321;P40018 …, ||||||)
[4] = target: T3, SmD1 (1-109);SmD2;SmF;SmE;SmG;SmD3 …; remark: listed apart in the source
[5] = target: T2, SmD1 (1-109);SmD2;SmF;SmE;SmG;Brr1; remark: listed apart in the source
[6] = target: T1, SmD1 (1-109);SmD2;SmF;SmE;SmG; remark: listed apart in the source
[7] = target: SmD1 (1-109);SmD2;SmF;SmE;SmG;Brr1;SmD3 (1-88);SmB (1-105) (Saccharomyces cerevisiae;Saccharomyces …, UniProt Q02260;Q06217;P54999;Q12330;P40204;Q99177;P43321;P40018 …, |||||||)
[8] = target: T3, SmD1 (1-109);SmD2;SmF;SmE;SmG;SmD3 …; remark: listed apart in the source
[9] = target: T3, SmD1 (1-109);SmD2;SmF;SmE;SmG;SmD3 …; remark: listed apart in the source

B1: Umini-3'ss (ssRNA)
RNA: GGGAAGUGUUACAGCUCUUUUAGAAUUUUUGGAGUAGGCUUUCUGGCUUUUCAGGCCUUUCGGGGA
- binding result [1]: binds
- binding result [2]: binds
- binding result [3]: binds

B2: Umini-snRNA (structured_RNA)
RNA: GGGAAGUGUUACAGCUCUUUUAGAAUUUUUGGAGUAGGCUUUCUGGCUUUUCACCGGAAAGCCCCU
- binding result [4]: binds
- binding result [5]: binds
- binding result [6]: binds

B3: Umini-ΔSm-snRNA (structured_RNA)
RNA: GGGAAGUGUUACAGCUCUUUUAGAACCCCCGGAGUAGGCUUUCUGGCUUUUCACCGGAAAGCCCCU
- binding result [7]: no binding
- binding result [6]: no binding
- binding result [2]: no binding
- binding result [8]: no binding

B4: U4-snRNA (structured_RNA)
RNA: GGAUCCUUAUGCACGGGAAAUACGCAUAUCAGUGAGGAUUCGUCCGAGAUUGUGUUUUUGCUGGUUGAAAUUUAAUUAUAAACCAGACCGUCUCCUCAUGGUCAAUUCGGUGUUCGCUUUUGAAUACUUCAAGACUAUGUAAAUUUUUGGAAUACCUUU
- binding result [9]: binds
- binding result [2]: binds
